Key:
Experiment in all cases: cell-based or functional assay
eEF-2K(h) = target: T1, eEF-2K(h) (human, UniProt O00418 1-725, limits assumed)
T1 sequence (looked up): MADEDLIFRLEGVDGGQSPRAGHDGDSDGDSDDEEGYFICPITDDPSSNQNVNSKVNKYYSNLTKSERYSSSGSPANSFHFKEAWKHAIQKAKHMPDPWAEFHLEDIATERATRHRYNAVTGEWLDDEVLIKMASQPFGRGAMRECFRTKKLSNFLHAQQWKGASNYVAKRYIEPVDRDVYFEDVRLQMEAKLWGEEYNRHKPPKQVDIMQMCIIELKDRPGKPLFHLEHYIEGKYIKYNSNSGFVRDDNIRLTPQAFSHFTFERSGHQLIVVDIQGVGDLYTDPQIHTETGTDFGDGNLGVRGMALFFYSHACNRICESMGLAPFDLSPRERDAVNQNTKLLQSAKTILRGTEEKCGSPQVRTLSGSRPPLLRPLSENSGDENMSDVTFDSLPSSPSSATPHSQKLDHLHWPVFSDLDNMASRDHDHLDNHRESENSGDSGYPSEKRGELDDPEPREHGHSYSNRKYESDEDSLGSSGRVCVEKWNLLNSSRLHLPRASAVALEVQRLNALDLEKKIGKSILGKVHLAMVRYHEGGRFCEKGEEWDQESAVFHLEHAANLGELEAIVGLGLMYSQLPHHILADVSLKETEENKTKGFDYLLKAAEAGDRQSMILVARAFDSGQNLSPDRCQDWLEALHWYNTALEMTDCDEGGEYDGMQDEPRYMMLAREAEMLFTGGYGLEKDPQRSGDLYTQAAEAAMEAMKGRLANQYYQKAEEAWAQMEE

Hck(h) activated = Hck(h) activated (human, UniProt P08631 251-518, limits assumed)
Fgr(h) = Fgr(h) (human, UniProt P09769 1-529)
Abl(Q252H)(h) = Abl(Q252H)(h) (human, UniProt P00519 27-1130, limits assumed)
BrSK1(h) = target: T2, BrSK1(h) (human, UniProt Q8TDC3 1-778, limits assumed)
T2 sequence (looked up): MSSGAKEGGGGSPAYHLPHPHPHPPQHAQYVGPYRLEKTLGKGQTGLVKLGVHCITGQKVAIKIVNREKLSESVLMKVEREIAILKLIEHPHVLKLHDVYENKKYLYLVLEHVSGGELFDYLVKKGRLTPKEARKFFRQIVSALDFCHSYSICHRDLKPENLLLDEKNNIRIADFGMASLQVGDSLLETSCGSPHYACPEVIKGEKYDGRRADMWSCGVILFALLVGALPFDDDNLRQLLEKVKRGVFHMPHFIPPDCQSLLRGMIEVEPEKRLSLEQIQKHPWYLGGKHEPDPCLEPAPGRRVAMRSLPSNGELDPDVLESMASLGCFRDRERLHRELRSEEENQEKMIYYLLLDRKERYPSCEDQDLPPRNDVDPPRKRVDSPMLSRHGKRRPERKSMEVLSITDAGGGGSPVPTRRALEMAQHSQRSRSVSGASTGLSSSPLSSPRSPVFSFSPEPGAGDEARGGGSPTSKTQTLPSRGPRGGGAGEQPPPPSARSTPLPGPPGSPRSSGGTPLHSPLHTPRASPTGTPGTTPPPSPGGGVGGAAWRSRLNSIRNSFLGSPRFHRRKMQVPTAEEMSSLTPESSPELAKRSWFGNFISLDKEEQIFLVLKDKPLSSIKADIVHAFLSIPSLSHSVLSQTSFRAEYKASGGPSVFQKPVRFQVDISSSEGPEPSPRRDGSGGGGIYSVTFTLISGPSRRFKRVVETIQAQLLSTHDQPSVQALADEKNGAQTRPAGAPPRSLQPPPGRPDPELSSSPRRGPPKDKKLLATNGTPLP

SAPK2b(h) = SAPK2b(h) (human, UniProt Q15759 1-364)
EphB1(h) = target: T3, EphB1(h) (human, UniProt P54762 564-984, limits assumed)
T3 sequence (looked up): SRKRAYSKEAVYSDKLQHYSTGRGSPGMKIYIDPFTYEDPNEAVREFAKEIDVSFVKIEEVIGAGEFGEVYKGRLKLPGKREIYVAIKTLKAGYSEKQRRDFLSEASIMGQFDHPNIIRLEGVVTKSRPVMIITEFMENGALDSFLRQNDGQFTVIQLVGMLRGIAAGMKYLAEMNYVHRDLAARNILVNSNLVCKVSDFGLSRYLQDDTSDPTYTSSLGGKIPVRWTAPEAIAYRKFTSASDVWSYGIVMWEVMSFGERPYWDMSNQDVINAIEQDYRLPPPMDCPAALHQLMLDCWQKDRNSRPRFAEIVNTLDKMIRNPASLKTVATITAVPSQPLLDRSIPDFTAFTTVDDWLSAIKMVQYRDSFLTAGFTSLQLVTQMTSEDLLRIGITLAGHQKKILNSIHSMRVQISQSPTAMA

NLK(h) = target: T4, NLK(h) (human, UniProt Q9UBE8 1-527, limits assumed)
T4 sequence (looked up): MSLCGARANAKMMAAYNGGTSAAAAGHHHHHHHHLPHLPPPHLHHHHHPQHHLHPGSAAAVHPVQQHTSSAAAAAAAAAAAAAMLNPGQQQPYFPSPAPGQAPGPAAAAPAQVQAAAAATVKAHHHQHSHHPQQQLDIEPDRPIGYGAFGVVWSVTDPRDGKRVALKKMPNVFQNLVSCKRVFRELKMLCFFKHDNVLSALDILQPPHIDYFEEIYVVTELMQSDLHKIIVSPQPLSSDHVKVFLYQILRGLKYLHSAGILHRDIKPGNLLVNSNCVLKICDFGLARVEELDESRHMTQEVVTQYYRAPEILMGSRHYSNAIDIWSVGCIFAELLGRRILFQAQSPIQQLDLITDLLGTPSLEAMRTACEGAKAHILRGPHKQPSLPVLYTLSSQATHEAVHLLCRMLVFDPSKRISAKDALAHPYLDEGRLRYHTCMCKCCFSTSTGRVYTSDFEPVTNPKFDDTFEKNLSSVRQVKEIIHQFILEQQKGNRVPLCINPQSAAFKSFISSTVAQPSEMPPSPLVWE

FGFR2(h) = FGFR2(h) (human, UniProt P21802 456-770, limits assumed)
DAPK2(h) = DAPK2(h) (human, UniProt Q9UIK4 1-370, limits assumed)
Chain of DAPK2(h) (Q9UIK4 whole entry): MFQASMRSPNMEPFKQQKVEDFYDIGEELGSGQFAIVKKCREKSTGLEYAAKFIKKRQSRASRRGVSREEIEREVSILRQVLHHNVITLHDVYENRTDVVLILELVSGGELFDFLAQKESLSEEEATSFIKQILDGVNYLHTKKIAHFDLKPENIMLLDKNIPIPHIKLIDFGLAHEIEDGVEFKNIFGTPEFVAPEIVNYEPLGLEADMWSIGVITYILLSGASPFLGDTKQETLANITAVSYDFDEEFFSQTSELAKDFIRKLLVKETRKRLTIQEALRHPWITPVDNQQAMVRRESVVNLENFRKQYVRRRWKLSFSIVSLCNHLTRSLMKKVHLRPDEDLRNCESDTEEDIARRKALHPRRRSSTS

Chain of Hck(h) activated (P08631 251-518 limits assumed): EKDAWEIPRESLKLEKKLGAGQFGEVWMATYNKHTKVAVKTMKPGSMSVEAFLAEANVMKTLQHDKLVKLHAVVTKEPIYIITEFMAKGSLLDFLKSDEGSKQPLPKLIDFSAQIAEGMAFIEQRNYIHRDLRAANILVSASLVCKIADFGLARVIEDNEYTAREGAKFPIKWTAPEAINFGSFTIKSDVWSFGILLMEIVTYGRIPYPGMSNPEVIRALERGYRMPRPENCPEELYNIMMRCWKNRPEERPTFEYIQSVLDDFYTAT
Chain of Abl(Q252H)(h) (P00519 27-1130 Q252H limits assumed): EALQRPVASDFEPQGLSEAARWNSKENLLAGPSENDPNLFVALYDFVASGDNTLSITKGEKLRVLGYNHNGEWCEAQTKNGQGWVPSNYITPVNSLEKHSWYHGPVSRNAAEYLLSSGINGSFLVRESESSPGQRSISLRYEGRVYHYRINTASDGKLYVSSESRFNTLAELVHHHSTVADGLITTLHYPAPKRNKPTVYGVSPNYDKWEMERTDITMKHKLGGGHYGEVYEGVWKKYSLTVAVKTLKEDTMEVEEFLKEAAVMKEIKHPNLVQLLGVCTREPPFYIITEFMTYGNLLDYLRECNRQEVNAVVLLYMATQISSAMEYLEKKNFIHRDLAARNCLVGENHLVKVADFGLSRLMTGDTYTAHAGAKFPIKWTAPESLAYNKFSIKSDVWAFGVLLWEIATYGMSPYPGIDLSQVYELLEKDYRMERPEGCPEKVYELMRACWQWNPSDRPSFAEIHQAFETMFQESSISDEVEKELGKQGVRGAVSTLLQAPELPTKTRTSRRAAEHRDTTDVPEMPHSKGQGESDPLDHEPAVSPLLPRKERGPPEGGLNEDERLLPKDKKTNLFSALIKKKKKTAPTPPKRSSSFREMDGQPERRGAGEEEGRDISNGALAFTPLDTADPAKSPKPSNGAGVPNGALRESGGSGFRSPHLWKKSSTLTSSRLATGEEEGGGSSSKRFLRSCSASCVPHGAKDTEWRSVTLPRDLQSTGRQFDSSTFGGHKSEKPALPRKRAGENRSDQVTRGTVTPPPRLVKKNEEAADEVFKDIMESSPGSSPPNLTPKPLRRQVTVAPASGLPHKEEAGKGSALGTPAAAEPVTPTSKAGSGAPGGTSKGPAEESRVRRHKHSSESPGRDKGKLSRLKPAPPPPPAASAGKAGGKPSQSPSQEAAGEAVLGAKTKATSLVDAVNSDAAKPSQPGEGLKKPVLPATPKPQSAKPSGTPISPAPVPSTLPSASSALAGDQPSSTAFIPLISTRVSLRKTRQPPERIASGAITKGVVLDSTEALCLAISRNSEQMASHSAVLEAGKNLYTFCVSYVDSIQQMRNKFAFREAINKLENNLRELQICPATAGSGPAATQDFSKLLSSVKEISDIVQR
Chain of SAPK2b(h) (Q15759 whole entry): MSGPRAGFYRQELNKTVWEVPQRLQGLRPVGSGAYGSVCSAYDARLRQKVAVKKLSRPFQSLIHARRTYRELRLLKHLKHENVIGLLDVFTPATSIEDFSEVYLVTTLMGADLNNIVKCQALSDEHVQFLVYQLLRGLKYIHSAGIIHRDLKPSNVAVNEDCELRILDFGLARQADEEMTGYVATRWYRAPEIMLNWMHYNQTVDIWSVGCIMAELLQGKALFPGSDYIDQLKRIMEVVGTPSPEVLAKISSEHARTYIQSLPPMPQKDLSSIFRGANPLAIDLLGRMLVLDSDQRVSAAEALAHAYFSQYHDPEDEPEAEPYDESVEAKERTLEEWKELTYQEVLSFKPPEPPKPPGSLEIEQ
Chain of FGFR2(h) (P21802 456-770 limits assumed): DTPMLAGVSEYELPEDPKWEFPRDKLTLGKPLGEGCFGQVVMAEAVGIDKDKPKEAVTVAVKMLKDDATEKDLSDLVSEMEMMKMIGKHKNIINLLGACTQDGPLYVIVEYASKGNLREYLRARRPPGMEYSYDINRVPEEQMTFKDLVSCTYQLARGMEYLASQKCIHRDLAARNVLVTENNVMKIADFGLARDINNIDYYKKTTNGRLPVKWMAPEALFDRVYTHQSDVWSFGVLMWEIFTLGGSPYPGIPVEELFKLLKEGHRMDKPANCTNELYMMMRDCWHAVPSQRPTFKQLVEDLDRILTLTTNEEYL

Binder | % activity, 100 µM (eEF-2K(h)) [%] | % activity, 100 µM (Hck(h) activated) [%] | % activity, 100 µM (Fgr(h)) [%] | % activity, 100 µM (Abl(Q252H)(h)) [%] | % activity, 100 µM (BrSK1(h)) [%] | % activity, 100 µM (SAPK2b(h)) [%] | % activity, 100 µM (EphB1(h)) [%] | % activity, 100 µM (NLK(h)) [%] | % activity, 100 µM (FGFR2(h)) [%] | % activity, 100 µM (DAPK2(h)) [%]
FAKLAARLYRKALARQLGVAA [MMI-0300] | 91 | 82 | 60 | 82 | 67 | 81 | 44 | 87 | 14 | 32
KAFAKLAARLYRKALARQLGVAA [MMI-0400] | 43 | 81 | 47 | 98 | 76 | 82 | 58 | 90 | 18 | 16
